Source: patent US20150224191A1 (VEGENICS, published 2015)

Columns and labels:
VEGF-C Dimer = biological target: T1, VEGF-C Dimer (Homodimer of two identical chains. The nature of the dimer linkage is not stated in the passages seen.); test: direct binding ELISA, antigen coated as capture antigen, bound VGX-100 detected with rabbit anti-human IgG-HRP, Abs 450 nm
T1 construct: a form of m2; also called dimer form of VEGF-C
T1 chain 1: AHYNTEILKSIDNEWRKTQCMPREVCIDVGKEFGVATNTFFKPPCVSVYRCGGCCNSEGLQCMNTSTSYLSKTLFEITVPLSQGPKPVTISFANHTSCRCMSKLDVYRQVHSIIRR
T1 chain 2: T1 chain 1

VEGF-C Monomer = biological target: T2, VEGF-C Monomer; test: as above
T2 construct: a form of m2; also called monomer form of VEGF-C
T2 chain: T1 chain 1

VEGF-C [1] = biological target: T3, VEGF-C (human, UniProt P49767 103-227, limits assumed); test: cell-based or functional assay
T3 sequence: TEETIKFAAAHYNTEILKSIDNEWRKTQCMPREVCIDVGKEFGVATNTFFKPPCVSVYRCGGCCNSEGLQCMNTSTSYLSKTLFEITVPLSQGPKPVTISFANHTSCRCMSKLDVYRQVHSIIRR

VEGF-C [2] = biological target: T3, VEGF-C; test: cell-based or functional assay; remark: listed apart in the source
VEGF-C [3] = biological target: T3, VEGF-C; test: BiaCore (SPR); format not described

EC50 (read off the curve) (VEGF-C Dimer): ~0.001 µg/mL
EC50 (read off the curve) (VEGF-C Monomer): ~0.001 µg/mL
IC50 (read off the curve); [3H]-thymidine incorporation of BA/F3-VEGFR-2/EpoR cells as percent of ligand alone; blocked: VEGF-C binding to VEGFR-2 (VEGF-C [1]): ~0.03 µg/mL
IC50 (read off the curve); [3H]-thymidine incorporation of BA/F3-VEGFR-3/EpoR cells as percent of ligand alone; blocked: VEGF-C binding to VEGFR-3 (VEGF-C [2]): ~0.04 µg/mL
Kd (VEGF-C [3]): 1.8 nM
B1: VEGF-C antibody VGX-100 (antibody, human IgG1, lambda, V domains shown)
VH: EVRLLESGGGLVQPGGSLRLSCAASGFTFRPRAMAWVRQAPGKGLEWVSSISAQGASAYYADSVKGRFTISRDNSKNTLYLQMNSLRAEDTAVYYCARDLSVSGFGPWGRGTMVTVSS
VL: SYELTQPPSSSGTPGQRVTISCSGSSSNIGRHTVSWYQQVPGTAPKLLIYSDDHRPSGVPDRFSASKSGTSASLTITGLQSEDEADYYCAAWDDSLNGPWVFGGGTKLTVLG
